Square brackets hold non-standard residues; d marks the D form. Ends that are not written are not given here. Met(O) = CS(=O)CC[C@H](N)C(=O)O
Target: T1, mouse ADAMTS7 (Mus musculus, UniProt Q68SA9)
T1 construct: Full-length mouse Adamts7 1-1857 (Uniprot Q68SA9, WT or E373Q catalytic mutant); expressed in transfected cells; host or cells: Human Coronary Artery Smooth Muscle Cells (HCA-SMC, Lonza), adenovirus 50 MOI
T1 sequence (Q68SA9 221-1657): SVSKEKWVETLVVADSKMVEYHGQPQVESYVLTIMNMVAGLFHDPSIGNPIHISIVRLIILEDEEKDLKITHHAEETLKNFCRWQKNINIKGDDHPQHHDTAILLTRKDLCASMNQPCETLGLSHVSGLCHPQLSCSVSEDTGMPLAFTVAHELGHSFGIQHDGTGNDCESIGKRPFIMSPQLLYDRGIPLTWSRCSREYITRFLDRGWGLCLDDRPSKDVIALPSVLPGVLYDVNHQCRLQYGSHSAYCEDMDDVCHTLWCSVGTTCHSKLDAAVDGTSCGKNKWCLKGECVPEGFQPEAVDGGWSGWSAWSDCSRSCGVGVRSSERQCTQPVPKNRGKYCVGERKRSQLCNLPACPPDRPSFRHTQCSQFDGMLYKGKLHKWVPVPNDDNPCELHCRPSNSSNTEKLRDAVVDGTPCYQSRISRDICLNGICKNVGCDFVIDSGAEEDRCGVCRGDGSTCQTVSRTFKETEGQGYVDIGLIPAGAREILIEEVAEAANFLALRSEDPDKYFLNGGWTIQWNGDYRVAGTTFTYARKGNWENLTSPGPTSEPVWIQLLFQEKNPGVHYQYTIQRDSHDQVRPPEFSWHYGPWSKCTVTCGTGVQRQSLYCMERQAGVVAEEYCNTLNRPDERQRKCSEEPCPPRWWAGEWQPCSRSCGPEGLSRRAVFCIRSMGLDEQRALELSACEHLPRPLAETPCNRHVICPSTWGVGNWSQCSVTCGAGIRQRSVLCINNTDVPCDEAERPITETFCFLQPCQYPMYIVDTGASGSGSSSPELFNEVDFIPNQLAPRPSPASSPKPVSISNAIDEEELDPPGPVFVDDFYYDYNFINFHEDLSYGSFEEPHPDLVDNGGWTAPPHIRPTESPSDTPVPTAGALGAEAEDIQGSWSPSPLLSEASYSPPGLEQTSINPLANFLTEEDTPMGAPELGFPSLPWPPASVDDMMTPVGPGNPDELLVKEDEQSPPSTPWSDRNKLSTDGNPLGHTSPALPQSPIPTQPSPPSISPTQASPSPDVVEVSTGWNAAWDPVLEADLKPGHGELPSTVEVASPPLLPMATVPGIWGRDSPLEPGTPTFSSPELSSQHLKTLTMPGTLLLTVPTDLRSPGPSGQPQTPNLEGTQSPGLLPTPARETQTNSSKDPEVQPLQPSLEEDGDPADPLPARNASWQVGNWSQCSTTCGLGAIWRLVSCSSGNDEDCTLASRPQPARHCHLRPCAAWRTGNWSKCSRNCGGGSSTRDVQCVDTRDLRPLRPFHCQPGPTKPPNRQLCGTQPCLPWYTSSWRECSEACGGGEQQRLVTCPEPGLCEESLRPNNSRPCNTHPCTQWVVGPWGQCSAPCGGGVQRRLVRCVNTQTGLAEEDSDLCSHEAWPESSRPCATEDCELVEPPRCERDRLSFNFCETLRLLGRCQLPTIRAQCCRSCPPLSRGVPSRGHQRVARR
Test: TMT10 TAILS N-terminomics, HUVEC experiment (process replicates, trypsin/AspN digest)
Assay type: cell-based, human
Conditions: HUVEC TAILS HC; log fold change of N-terminal peptide, Ad-mADAMTS7 WT over Luc
Summary of the method: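 Full-length mouse ADAMTS7 (WT or E373Q mutant, C-terminal 3xFLAG) or luciferase was transduced via adenovirus, 50 MOI, into HCA-SMC (SMC1, SMC2) or HUVEC. SMC1: pooled media, technical triplicates 400 ug; SMC2: process triplicates 300 ug; HUVEC: process triplicates 200 ug, bFGF2 10 ng/ml.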

logFC.mWT.over.Luc | Substance
2.18 | ASMT_321 (LSSAGFR; listed as Homo sapiens)
1.23 | BICD1_280 (NNDDKMNGHIHGPLVKLNGDYR; listed as Homo sapiens)
1.56 | CLU_267 (FQHPPTEFIR; listed as Homo sapiens)
2.94 | CTGF_173 (TVVGPALAAYR; listed as Homo sapiens)
2.13 | CTGF_174 (VVGPALAAYR; listed as Homo sapiens)
1.40 | FN1_1624 (LVQTAVTTIPAPT; listed as Homo sapiens)
2.86 | FN1_1743 (WESPQGQVSR; listed as Homo sapiens)
4.83 | LTBP2_129 (QQQPAPR; listed as Homo sapiens)
2.90 | LTBP2_253 (GEGTLAR; listed as Homo sapiens)
1.82 | LTBP3_164 (LSTGALPPLAPEG; listed as Homo sapiens)
2.41 | LTBP3_205 (HAAFLVPLGPGQISA; listed as Homo sapiens)
2.72 | LTBP3_221 (VQAPPPVVNVR; listed as Homo sapiens)
1.13 | MCFD2_55 (HLEGVINKPEA; listed as Homo sapiens)
2.38 | PSAP_301 (LVEPIKKH; listed as Homo sapiens)
1.11 | PTBP1_376 (AAAAAGR; listed as Homo sapiens)
2.11 | PZP_578 (HAHLQVAAAPQSLCALR; listed as Homo sapiens)
2.27 | THBS1_630 (FGQGVEHATANK; listed as Homo sapiens)
1.39 | UQCRH_76 (HGSPNNSERAMRAVGE[Met(O)]CKGPGAAR; listed as Homo sapiens)
1.20 | ZYX_244 (PVSLANTQPR; listed as Homo sapiens)
